This note sets out measurements from publication PMC10826351.

In one data set the target is T1, PbtAC (PbtA C-terminal domain) (Vibrio anguillarum RV22) (UniProt A0A289GIJ0).
T1 sequence: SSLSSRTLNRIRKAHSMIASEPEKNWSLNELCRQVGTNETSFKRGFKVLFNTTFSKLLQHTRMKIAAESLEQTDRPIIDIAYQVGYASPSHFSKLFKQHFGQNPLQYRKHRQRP
Description: EMSA. The settings on record: 1 mM Tris pH 7.5, 155 mM KCl, 0.1 mM DTT, 5% glycerol, 5 mM MgCl2, 1 mM EDTA, 0.3 mg/mL BSA, 30 min at 20 C.
As for “TAAAACAAAACCAGAAAATAAAATAAAAATCAACAAAATTAAATGCTTAATTTTAATTAAGTTC (double strand) [Probe 4 (frpA, 6xAAAAT low complexity region)]”, the binding result is reported as “no binding”.

For the substance “AAAAATAGACGACCCGATCTATTCAAGCTTGTTTAAAATAACAATCATAAACGTCGATTCACGCTCTTTTTATGCCTTATTCAGTTAGCAGGTAAAAGACAGAATCGGCACTATAAGTTCAATATGGATACCACAG (double strand) [Probe 5 (frpA)]”, the binding entry is given as “binds”.

Staying with this data set, now noted: 1 mM Tris pH 7.5, 155 mM KCl, 0.1 mM DTT, 5% glycerol, 5 mM MgCl2, 1 mM EDTA, 0.3 mg/mL BSA, 30 min at 20 C, scale: free probe band ratio to no-protein control.
As to “TATTGAGCAATTGAGGATTAATGAATGTGGCCACTAATATACTAATACCGATTGCTGAGTGGTGGGCTAGTTACGACTAAACGCGACGATTTTATACCTAATTGCGTTAGCGATGGCATGCATATTCAGCAAAAATAGCCTCCATTTATG (double strand) [Probe 12 (frpC)]”, the binding signal was 0.7.

A further data set has as its system PbtAC (PbtA C-terminal domain) (Vibrio anguillarum RV22). Description: EMSA. The settings on record: 1 mM Tris pH 7.5, 155 mM KCl, 0.1 mM DTT, 5% glycerol, 5 mM MgCl2, 1 mM EDTA, 0.3 mg/mL BSA, 30 min at 20 C, scale: free probe band ratio to no-protein control.
With hcp1 promoter (P5), the binding signal came to 0.74.

Turning to vgrG promoter (P2?), the binding signal stood at 0.09.

Turning to hcp2 promoter (P6), the binding signal was found to be 0.28.

Take PfrpC (Probe 9): the binding signal is 0.41.

On to vanT promoter (P3), for which the binding signal came to 0.81.

Turning to vipA promoter (P1?), the binding signal turned out to be 0.2.

LPS wzi(ab) promoter (P4): the binding signal was found to be 0.26.

Take PfrpA (Probe 1): the binding signal was 0.49.
